B1: Pistol ribozyme (parent)
chain: GGGUCGUUGUUCCAUAAUCGCGUGGAUAUGGCACGCAAGUUUCUACCGGGCACCGUAAAUGUCCGACUGGAGCCGUUCGGGCGGCUAUAAACAGACCUCAGGCCCGAAGCGUGGCGGCACCUGCCGCCGGUGGUAAAAAAGAUCGGAAGAGCACACGUCU

Variants of: B1
Experiment: aptazyme ON/OFF ratio, guanine; higher = stronger switching; co-transcriptional cleavage with and without guanine

Row | Variant | aptazyme ON/OFF ratio
1 | GGGUCGAGGCUCAAUAAUCGCGUGGAUAUGGCACGCAAGUUUCUACCGGGCACCGUAAAUGUCCGACUGGAGCCGUUCGGGCGGCUAUAAACAGACCUCAGGCCCGAAGCGUGGCGGCACCUGCCGCCGGUGGUAAAAAAGAUCGGAAGAGCACACGUCU [U7A U8G U10C C13A] | 1.45
2 | GGGUCGAGGCUCGAUAAUCGCGUGGAUAUGGCACGCAAGUUUCUACCGGGCACCGUAAAUGUCCGACUGGAGCCGUUCGGGCGGCUAUAAACAGACCUCAGGCCCGAAGCGUGGCGGCACCUGCCGCCGGUGGUAAAAAAGAUCGGAAGAGCACACGUCU [U7A U8G U10C C13G] | 1.32
3 | GGGUCGAGGCUCUAUAAUCGCGUGGAUAUGGCACGCAAGUUUCUACCGGGCACCGUAAAUGUCCGACUGGAGCCGUUCGGGCGGCUAUAAACAGACCUCAGGCCCGAAGCGUGGCGGCACCUGCCGCCGGUGGUAAAAAAGAUCGGAAGAGCACACGUCU [U7A U8G U10C C13U] | 1.4
4 | GGGUCGAGGAGGUAUAAUCGCGUGGAUAUGGCACGCAAGUUUCUACCGGGCACCGUAAAUGUCCGACUGGAGCCGUUCGGGCGGCUAUAAACAGACCUCAGGCCCGAAGCGUGGCGGCACCUGCCGCCGGUGGUAAAAAAGAUCGGAAGAGCACACGUCU [U7A U8G U10A U11G C12G C13U] | 1.46
5 | GGGUCGAGGCUAAAUAAUCGCGUGGAUAUGGCACGCAAGUUUCUACCGGGCACCGUAAAUGUCCGACUGGAGCCGUUCGGGCGGCUAUAAACAGACCUCAGGCCCGAAGCGUGGCGGCACCUGCCGCCGGUGGUAAAAAAGAUCGGAAGAGCACACGUCU [U7A U8G U10C C12A C13A] | 1.41
6 | GGGUCGAGGCUAUAUAAUCGCGUGGAUAUGGCACGCAAGUUUCUACCGGGCACCGUAAAUGUCCGACUGGAGCCGUUCGGGCGGCUAUAAACAGACCUCAGGCCCGAAGCGUGGCGGCACCUGCCGCCGGUGGUAAAAAAGAUCGGAAGAGCACACGUCU [U7A U8G U10C C12A C13U] | 1.51
7 | GGGUCGAGGCUAGAUAAUCGCGUGGAUAUGGCACGCAAGUUUCUACCGGGCACCGUAAAUGUCCGACUGGAGCCGUUCGGGCGGCUAUAAACAGACCUCAGGCCCGAAGCGUGGCGGCACCUGCCGCCGGUGGUAAAAAAGAUCGGAAGAGCACACGUCU [U7A U8G U10C C12A C13G] | 1.25
8 | GGGUCGAGGAGUCAUAAUCGCGUGGAUAUGGCACGCAAGUUUCUACCGGGCACCGUAAAUGUCCGACUGGAGCCGUUCGGGCGGCUAUAAACAGACCUCAGGCCCGAAGCGUGGCGGCACCUGCCGCCGGUGGUAAAAAAGAUCGGAAGAGCACACGUCU [U7A U8G U10A U11G C12U] | 1.12
9 | GGGUCGAGGCUUUAUAAUCGCGUGGAUAUGGCACGCAAGUUUCUACCGGGCACCGUAAAUGUCCGACUGGAGCCGUUCGGGCGGCUAUAAACAGACCUCAGGCCCGAAGCGUGGCGGCACCUGCCGCCGGUGGUAAAAAAGAUCGGAAGAGCACACGUCU [U7A U8G U10C C12U C13U] | 1.51
10 | GGGUCGAGGCUUAAUAAUCGCGUGGAUAUGGCACGCAAGUUUCUACCGGGCACCGUAAAUGUCCGACUGGAGCCGUUCGGGCGGCUAUAAACAGACCUCAGGCCCGAAGCGUGGCGGCACCUGCCGCCGGUGGUAAAAAAGAUCGGAAGAGCACACGUCU [U7A U8G U10C C12U C13A] | 1.55
11 | GGGUCGAGGCUUGAUAAUCGCGUGGAUAUGGCACGCAAGUUUCUACCGGGCACCGUAAAUGUCCGACUGGAGCCGUUCGGGCGGCUAUAAACAGACCUCAGGCCCGAAGCGUGGCGGCACCUGCCGCCGGUGGUAAAAAAGAUCGGAAGAGCACACGUCU [U7A U8G U10C C12U C13G] | 1.4
12 | GGGUCGAGGCACCAUAAUCGCGUGGAUAUGGCACGCAAGUUUCUACCGGGCACCGUAAAUGUCCGACUGGAGCCGUUCGGGCGGCUAUAAACAGACCUCAGGCCCGAAGCGUGGCGGCACCUGCCGCCGGUGGUAAAAAAGAUCGGAAGAGCACACGUCU [U7A U8G U10C U11A] | 1.95
13 | GGGUCGAGGCUCCAUAAUCGCGUGGAUAUGGCACGCAAGUUUCUACCGGGCACCGUAAAUGUCCGACUGGAGCCGUUCGGGCGGCUAUAAACAGACCUCAGGCCCGAAGCGUGGCGGCACCUGCCGCCGGUGGUAAAAAAGAUCGGAAGAGCACACGUCU [U7A U8G U10C] | 1.75
14 | GGGUCGAGGCAAGAUAAUCGCGUGGAUAUGGCACGCAAGUUUCUACCGGGCACCGUAAAUGUCCGACUGGAGCCGUUCGGGCGGCUAUAAACAGACCUCAGGCCCGAAGCGUGGCGGCACCUGCCGCCGGUGGUAAAAAAGAUCGGAAGAGCACACGUCU [U7A U8G U10C U11A C12A C13G] | 1.53
15 | GGGUCGAGGCAAAAUAAUCGCGUGGAUAUGGCACGCAAGUUUCUACCGGGCACCGUAAAUGUCCGACUGGAGCCGUUCGGGCGGCUAUAAACAGACCUCAGGCCCGAAGCGUGGCGGCACCUGCCGCCGGUGGUAAAAAAGAUCGGAAGAGCACACGUCU [U7A U8G U10C U11A C12A C13A] | 1.27
16 | GGGUCGAGGCAAUAUAAUCGCGUGGAUAUGGCACGCAAGUUUCUACCGGGCACCGUAAAUGUCCGACUGGAGCCGUUCGGGCGGCUAUAAACAGACCUCAGGCCCGAAGCGUGGCGGCACCUGCCGCCGGUGGUAAAAAAGAUCGGAAGAGCACACGUCU [U7A U8G U10C U11A C12A C13U] | 1.37
17 | GGGUCGAGGCAGGAUAAUCGCGUGGAUAUGGCACGCAAGUUUCUACCGGGCACCGUAAAUGUCCGACUGGAGCCGUUCGGGCGGCUAUAAACAGACCUCAGGCCCGAAGCGUGGCGGCACCUGCCGCCGGUGGUAAAAAAGAUCGGAAGAGCACACGUCU [U7A U8G U10C U11A C12G C13G] | 1.28
18 | GGGUCGAGGCAGUAUAAUCGCGUGGAUAUGGCACGCAAGUUUCUACCGGGCACCGUAAAUGUCCGACUGGAGCCGUUCGGGCGGCUAUAAACAGACCUCAGGCCCGAAGCGUGGCGGCACCUGCCGCCGGUGGUAAAAAAGAUCGGAAGAGCACACGUCU [U7A U8G U10C U11A C12G C13U] | 1.31

Row | Variant | aptazyme ON/OFF ratio
19 | GGGUCGAGGCAGAAUAAUCGCGUGGAUAUGGCACGCAAGUUUCUACCGGGCACCGUAAAUGUCCGACUGGAGCCGUUCGGGCGGCUAUAAACAGACCUCAGGCCCGAAGCGUGGCGGCACCUGCCGCCGGUGGUAAAAAAGAUCGGAAGAGCACACGUCU [U7A U8G U10C U11A C12G C13A] | 1.22
20 | GGGUCGAGGCAUGAUAAUCGCGUGGAUAUGGCACGCAAGUUUCUACCGGGCACCGUAAAUGUCCGACUGGAGCCGUUCGGGCGGCUAUAAACAGACCUCAGGCCCGAAGCGUGGCGGCACCUGCCGCCGGUGGUAAAAAAGAUCGGAAGAGCACACGUCU [U7A U8G U10C U11A C12U C13G] | 0.954
21 | GGGUCGAGGCAUAAUAAUCGCGUGGAUAUGGCACGCAAGUUUCUACCGGGCACCGUAAAUGUCCGACUGGAGCCGUUCGGGCGGCUAUAAACAGACCUCAGGCCCGAAGCGUGGCGGCACCUGCCGCCGGUGGUAAAAAAGAUCGGAAGAGCACACGUCU [U7A U8G U10C U11A C12U C13A] | 1.35
22 | GGGUCGAGGAGCGAUAAUCGCGUGGAUAUGGCACGCAAGUUUCUACCGGGCACCGUAAAUGUCCGACUGGAGCCGUUCGGGCGGCUAUAAACAGACCUCAGGCCCGAAGCGUGGCGGCACCUGCCGCCGGUGGUAAAAAAGAUCGGAAGAGCACACGUCU [U7A U8G U10A U11G C13G] | 1.23
23 | GGGUCGAGGAGCUAUAAUCGCGUGGAUAUGGCACGCAAGUUUCUACCGGGCACCGUAAAUGUCCGACUGGAGCCGUUCGGGCGGCUAUAAACAGACCUCAGGCCCGAAGCGUGGCGGCACCUGCCGCCGGUGGUAAAAAAGAUCGGAAGAGCACACGUCU [U7A U8G U10A U11G C13U] | 1.29
24 | GGGUCGAGGAGCAAUAAUCGCGUGGAUAUGGCACGCAAGUUUCUACCGGGCACCGUAAAUGUCCGACUGGAGCCGUUCGGGCGGCUAUAAACAGACCUCAGGCCCGAAGCGUGGCGGCACCUGCCGCCGGUGGUAAAAAAGAUCGGAAGAGCACACGUCU [U7A U8G U10A U11G C13A] | 1.29
25 | GGGUCGAGGCUGUAUAAUCGCGUGGAUAUGGCACGCAAGUUUCUACCGGGCACCGUAAAUGUCCGACUGGAGCCGUUCGGGCGGCUAUAAACAGACCUCAGGCCCGAAGCGUGGCGGCACCUGCCGCCGGUGGUAAAAAAGAUCGGAAGAGCACACGUCU [U7A U8G U10C C12G C13U] | 1.28
26 | GGGUCGAGGCUGGAUAAUCGCGUGGAUAUGGCACGCAAGUUUCUACCGGGCACCGUAAAUGUCCGACUGGAGCCGUUCGGGCGGCUAUAAACAGACCUCAGGCCCGAAGCGUGGCGGCACCUGCCGCCGGUGGUAAAAAAGAUCGGAAGAGCACACGUCU [U7A U8G U10C C12G C13G] | 1.05
27 | GGGUCGAGGCUGAAUAAUCGCGUGGAUAUGGCACGCAAGUUUCUACCGGGCACCGUAAAUGUCCGACUGGAGCCGUUCGGGCGGCUAUAAACAGACCUCAGGCCCGAAGCGUGGCGGCACCUGCCGCCGGUGGUAAAAAAGAUCGGAAGAGCACACGUCU [U7A U8G U10C C12G C13A] | 1.19
28 | GGGUCGAGGAGUUAUAAUCGCGUGGAUAUGGCACGCAAGUUUCUACCGGGCACCGUAAAUGUCCGACUGGAGCCGUUCGGGCGGCUAUAAACAGACCUCAGGCCCGAAGCGUGGCGGCACCUGCCGCCGGUGGUAAAAAAGAUCGGAAGAGCACACGUCU [U7A U8G U10A U11G C12U C13U] | 1.32
29 | GGGUCGAGGAGUGAUAAUCGCGUGGAUAUGGCACGCAAGUUUCUACCGGGCACCGUAAAUGUCCGACUGGAGCCGUUCGGGCGGCUAUAAACAGACCUCAGGCCCGAAGCGUGGCGGCACCUGCCGCCGGUGGUAAAAAAGAUCGGAAGAGCACACGUCU [U7A U8G U10A U11G C12U C13G] | 1.21
30 | GGGUCGAGGAGUAAUAAUCGCGUGGAUAUGGCACGCAAGUUUCUACCGGGCACCGUAAAUGUCCGACUGGAGCCGUUCGGGCGGCUAUAAACAGACCUCAGGCCCGAAGCGUGGCGGCACCUGCCGCCGGUGGUAAAAAAGAUCGGAAGAGCACACGUCU [U7A U8G U10A U11G C12U C13A] | 1.15
31 | GGGUCGAGGCAACAUAAUCGCGUGGAUAUGGCACGCAAGUUUCUACCGGGCACCGUAAAUGUCCGACUGGAGCCGUUCGGGCGGCUAUAAACAGACCUCAGGCCCGAAGCGUGGCGGCACCUGCCGCCGGUGGUAAAAAAGAUCGGAAGAGCACACGUCU [U7A U8G U10C U11A C12A] | 1.5
32 | GGGUCGAGGCAGCAUAAUCGCGUGGAUAUGGCACGCAAGUUUCUACCGGGCACCGUAAAUGUCCGACUGGAGCCGUUCGGGCGGCUAUAAACAGACCUCAGGCCCGAAGCGUGGCGGCACCUGCCGCCGGUGGUAAAAAAGAUCGGAAGAGCACACGUCU [U7A U8G U10C U11A C12G] | 1.48
33 | GGGUCGAGGCAUCAUAAUCGCGUGGAUAUGGCACGCAAGUUUCUACCGGGCACCGUAAAUGUCCGACUGGAGCCGUUCGGGCGGCUAUAAACAGACCUCAGGCCCGAAGCGUGGCGGCACCUGCCGCCGGUGGUAAAAAAGAUCGGAAGAGCACACGUCU [U7A U8G U10C U11A C12U] | 1.27
34 | GGGUCGAGGCUACAUAAUCGCGUGGAUAUGGCACGCAAGUUUCUACCGGGCACCGUAAAUGUCCGACUGGAGCCGUUCGGGCGGCUAUAAACAGACCUCAGGCCCGAAGCGUGGCGGCACCUGCCGCCGGUGGUAAAAAAGAUCGGAAGAGCACACGUCU [U7A U8G U10C C12A] | 1.33
35 | GGGUCGAGGCUGCAUAAUCGCGUGGAUAUGGCACGCAAGUUUCUACCGGGCACCGUAAAUGUCCGACUGGAGCCGUUCGGGCGGCUAUAAACAGACCUCAGGCCCGAAGCGUGGCGGCACCUGCCGCCGGUGGUAAAAAAGAUCGGAAGAGCACACGUCU [U7A U8G U10C C12G] | 1.12
36 | GGGUCGAGGCUUCAUAAUCGCGUGGAUAUGGCACGCAAGUUUCUACCGGGCACCGUAAAUGUCCGACUGGAGCCGUUCGGGCGGCUAUAAACAGACCUCAGGCCCGAAGCGUGGCGGCACCUGCCGCCGGUGGUAAAAAAGAUCGGAAGAGCACACGUCU [U7A U8G U10C C12U] | 1.5

Source: the RNAGym collection of RNA variant scans (doi:10.1021/acssynbio.7b00057)
